Experimental data from PMC12262686 (bioRxiv, 2025).

Biological target: the molecule itself
Assay: negative-stain TEM

Protein	binding result
SPOP D77E, full-length (natural protein) MSRVPSPPPPAEMSSGPVAESWCYTQIKVVKFSYMWTINNFSFCREEMGEVIKSSTFSSGANDKLKWCLRVNPKGLEEESKDYLSLYLLLVSCPKSEVRAKFKFSILNAKGEETKAMESQRAYRFVQGKDWGFKKFIRRDFLLDEANGLLPDDKLTLFCEVSVVQDSVNISGQNTMNMVKVPECRLADELGGLWENSRFTDCCLCVAGQEFQAHKAILAARSPVFSAMFEHEMEESKKNRVEINDVEPEVFKEMMCFIYTGKAPNLDKMADDLLAAADKYALERLKVMCEDALCSNLSVENAAEILILADLHSADQLKTQAVDFINYHASDVLETSGWKSMVVSHPHLVAEAYRSLASAQCPFLGPPRKRLKQS	binds
SPOP Y87F (natural protein) MSRVPSPPPPAEMSSGPVAESWCYTQIKVVKFSYMWTINNFSFCREEMGEVIKSSTFSSGANDKLKWCLRVNPKGLDEESKDYLSLFLLLVSCPKSEVRAKFKFSILNAKGEETKAMESQRAYRFVQGKDWGFKKFIRRDFLLDEANGLLPDDKLTLFCEVSVVQDSVNISGQNTMNMVKVPECRLADELGGLWENSRFTDCCLCVAGQEFQAHKAILAARSPVFSAMFEHEMEESKKNRVEINDVEPEVFKEMMCFIYTGKAPNLDKMADDLLAAADKYALERLKVMCEDALCSNLSVENAAEILILADLHSADQLKTQAVDFINYHASDVLETSGWKSMVVSHPHLVAEAYRSLASAQCPFLGPPRKRLKQS	binds
SPOP W131L (natural protein) MSRVPSPPPPAEMSSGPVAESWCYTQIKVVKFSYMWTINNFSFCREEMGEVIKSSTFSSGANDKLKWCLRVNPKGLDEESKDYLSLYLLLVSCPKSEVRAKFKFSILNAKGEETKAMESQRAYRFVQGKDLGFKKFIRRDFLLDEANGLLPDDKLTLFCEVSVVQDSVNISGQNTMNMVKVPECRLADELGGLWENSRFTDCCLCVAGQEFQAHKAILAARSPVFSAMFEHEMEESKKNRVEINDVEPEVFKEMMCFIYTGKAPNLDKMADDLLAAADKYALERLKVMCEDALCSNLSVENAAEILILADLHSADQLKTQAVDFINYHASDVLETSGWKSMVVSHPHLVAEAYRSLASAQCPFLGPPRKRLKQS	binds
SPOP D140N (natural protein) MSRVPSPPPPAEMSSGPVAESWCYTQIKVVKFSYMWTINNFSFCREEMGEVIKSSTFSSGANDKLKWCLRVNPKGLDEESKDYLSLYLLLVSCPKSEVRAKFKFSILNAKGEETKAMESQRAYRFVQGKDWGFKKFIRRNFLLDEANGLLPDDKLTLFCEVSVVQDSVNISGQNTMNMVKVPECRLADELGGLWENSRFTDCCLCVAGQEFQAHKAILAARSPVFSAMFEHEMEESKKNRVEINDVEPEVFKEMMCFIYTGKAPNLDKMADDLLAAADKYALERLKVMCEDALCSNLSVENAAEILILADLHSADQLKTQAVDFINYHASDVLETSGWKSMVVSHPHLVAEAYRSLASAQCPFLGPPRKRLKQS	binds
SPOP R99W (natural protein) MSRVPSPPPPAEMSSGPVAESWCYTQIKVVKFSYMWTINNFSFCREEMGEVIKSSTFSSGANDKLKWCLRVNPKGLDEESKDYLSLYLLLVSCPKSEVWAKFKFSILNAKGEETKAMESQRAYRFVQGKDWGFKKFIRRDFLLDEANGLLPDDKLTLFCEVSVVQDSVNISGQNTMNMVKVPECRLADELGGLWENSRFTDCCLCVAGQEFQAHKAILAARSPVFSAMFEHEMEESKKNRVEINDVEPEVFKEMMCFIYTGKAPNLDKMADDLLAAADKYALERLKVMCEDALCSNLSVENAAEILILADLHSADQLKTQAVDFINYHASDVLETSGWKSMVVSHPHLVAEAYRSLASAQCPFLGPPRKRLKQS	binds
SPOP E47A (natural protein) MSRVPSPPPPAEMSSGPVAESWCYTQIKVVKFSYMWTINNFSFCREAMGEVIKSSTFSSGANDKLKWCLRVNPKGLDEESKDYLSLYLLLVSCPKSEVRAKFKFSILNAKGEETKAMESQRAYRFVQGKDWGFKKFIRRDFLLDEANGLLPDDKLTLFCEVSVVQDSVNISGQNTMNMVKVPECRLADELGGLWENSRFTDCCLCVAGQEFQAHKAILAARSPVFSAMFEHEMEESKKNRVEINDVEPEVFKEMMCFIYTGKAPNLDKMADDLLAAADKYALERLKVMCEDALCSNLSVENAAEILILADLHSADQLKTQAVDFINYHASDVLETSGWKSMVVSHPHLVAEAYRSLASAQCPFLGPPRKRLKQS	binds
SPOP E50K (natural protein) MSRVPSPPPPAEMSSGPVAESWCYTQIKVVKFSYMWTINNFSFCREEMGKVIKSSTFSSGANDKLKWCLRVNPKGLDEESKDYLSLYLLLVSCPKSEVRAKFKFSILNAKGEETKAMESQRAYRFVQGKDWGFKKFIRRDFLLDEANGLLPDDKLTLFCEVSVVQDSVNISGQNTMNMVKVPECRLADELGGLWENSRFTDCCLCVAGQEFQAHKAILAARSPVFSAMFEHEMEESKKNRVEINDVEPEVFKEMMCFIYTGKAPNLDKMADDLLAAADKYALERLKVMCEDALCSNLSVENAAEILILADLHSADQLKTQAVDFINYHASDVLETSGWKSMVVSHPHLVAEAYRSLASAQCPFLGPPRKRLKQS	binds
SPOP M117V (natural protein) MSRVPSPPPPAEMSSGPVAESWCYTQIKVVKFSYMWTINNFSFCREEMGEVIKSSTFSSGANDKLKWCLRVNPKGLDEESKDYLSLYLLLVSCPKSEVRAKFKFSILNAKGEETKAVESQRAYRFVQGKDWGFKKFIRRDFLLDEANGLLPDDKLTLFCEVSVVQDSVNISGQNTMNMVKVPECRLADELGGLWENSRFTDCCLCVAGQEFQAHKAILAARSPVFSAMFEHEMEESKKNRVEINDVEPEVFKEMMCFIYTGKAPNLDKMADDLLAAADKYALERLKVMCEDALCSNLSVENAAEILILADLHSADQLKTQAVDFINYHASDVLETSGWKSMVVSHPHLVAEAYRSLASAQCPFLGPPRKRLKQS	binds
SPOP R121Q (natural protein) MSRVPSPPPPAEMSSGPVAESWCYTQIKVVKFSYMWTINNFSFCREEMGEVIKSSTFSSGANDKLKWCLRVNPKGLDEESKDYLSLYLLLVSCPKSEVRAKFKFSILNAKGEETKAMESQQAYRFVQGKDWGFKKFIRRDFLLDEANGLLPDDKLTLFCEVSVVQDSVNISGQNTMNMVKVPECRLADELGGLWENSRFTDCCLCVAGQEFQAHKAILAARSPVFSAMFEHEMEESKKNRVEINDVEPEVFKEMMCFIYTGKAPNLDKMADDLLAAADKYALERLKVMCEDALCSNLSVENAAEILILADLHSADQLKTQAVDFINYHASDVLETSGWKSMVVSHPHLVAEAYRSLASAQCPFLGPPRKRLKQS	binds
SPOP R45W (natural protein) MSRVPSPPPPAEMSSGPVAESWCYTQIKVVKFSYMWTINNFSFCWEEMGEVIKSSTFSSGANDKLKWCLRVNPKGLDEESKDYLSLYLLLVSCPKSEVRAKFKFSILNAKGEETKAMESQRAYRFVQGKDWGFKKFIRRDFLLDEANGLLPDDKLTLFCEVSVVQDSVNISGQNTMNMVKVPECRLADELGGLWENSRFTDCCLCVAGQEFQAHKAILAARSPVFSAMFEHEMEESKKNRVEINDVEPEVFKEMMCFIYTGKAPNLDKMADDLLAAADKYALERLKVMCEDALCSNLSVENAAEILILADLHSADQLKTQAVDFINYHASDVLETSGWKSMVVSHPHLVAEAYRSLASAQCPFLGPPRKRLKQS	binds
SPOP W131G (natural protein) MSRVPSPPPPAEMSSGPVAESWCYTQIKVVKFSYMWTINNFSFCREEMGEVIKSSTFSSGANDKLKWCLRVNPKGLDEESKDYLSLYLLLVSCPKSEVRAKFKFSILNAKGEETKAMESQRAYRFVQGKDGGFKKFIRRDFLLDEANGLLPDDKLTLFCEVSVVQDSVNISGQNTMNMVKVPECRLADELGGLWENSRFTDCCLCVAGQEFQAHKAILAARSPVFSAMFEHEMEESKKNRVEINDVEPEVFKEMMCFIYTGKAPNLDKMADDLLAAADKYALERLKVMCEDALCSNLSVENAAEILILADLHSADQLKTQAVDFINYHASDVLETSGWKSMVVSHPHLVAEAYRSLASAQCPFLGPPRKRLKQS	binds
SPOP E78K, full-length (natural protein) MSRVPSPPPPAEMSSGPVAESWCYTQIKVVKFSYMWTINNFSFCREEMGEVIKSSTFSSGANDKLKWCLRVNPKGLDKESKDYLSLYLLLVSCPKSEVRAKFKFSILNAKGEETKAMESQRAYRFVQGKDWGFKKFIRRDFLLDEANGLLPDDKLTLFCEVSVVQDSVNISGQNTMNMVKVPECRLADELGGLWENSRFTDCCLCVAGQEFQAHKAILAARSPVFSAMFEHEMEESKKNRVEINDVEPEVFKEMMCFIYTGKAPNLDKMADDLLAAADKYALERLKVMCEDALCSNLSVENAAEILILADLHSADQLKTQAVDFINYHASDVLETSGWKSMVVSHPHLVAEAYRSLASAQCPFLGPPRKRLKQS	binds
SPOP V51E, full-length (natural protein) MSRVPSPPPPAEMSSGPVAESWCYTQIKVVKFSYMWTINNFSFCREEMGEEIKSSTFSSGANDKLKWCLRVNPKGLDEESKDYLSLYLLLVSCPKSEVRAKFKFSILNAKGEETKAMESQRAYRFVQGKDWGFKKFIRRDFLLDEANGLLPDDKLTLFCEVSVVQDSVNISGQNTMNMVKVPECRLADELGGLWENSRFTDCCLCVAGQEFQAHKAILAARSPVFSAMFEHEMEESKKNRVEINDVEPEVFKEMMCFIYTGKAPNLDKMADDLLAAADKYALERLKVMCEDALCSNLSVENAAEILILADLHSADQLKTQAVDFINYHASDVLETSGWKSMVVSHPHLVAEAYRSLASAQCPFLGPPRKRLKQS	binds
SPOP D130E (natural protein) MSRVPSPPPPAEMSSGPVAESWCYTQIKVVKFSYMWTINNFSFCREEMGEVIKSSTFSSGANDKLKWCLRVNPKGLDEESKDYLSLYLLLVSCPKSEVRAKFKFSILNAKGEETKAMESQRAYRFVQGKEWGFKKFIRRDFLLDEANGLLPDDKLTLFCEVSVVQDSVNISGQNTMNMVKVPECRLADELGGLWENSRFTDCCLCVAGQEFQAHKAILAARSPVFSAMFEHEMEESKKNRVEINDVEPEVFKEMMCFIYTGKAPNLDKMADDLLAAADKYALERLKVMCEDALCSNLSVENAAEILILADLHSADQLKTQAVDFINYHASDVLETSGWKSMVVSHPHLVAEAYRSLASAQCPFLGPPRKRLKQS	binds
SPOP E47K, full-length (natural protein) MSRVPSPPPPAEMSSGPVAESWCYTQIKVVKFSYMWTINNFSFCREKMGEVIKSSTFSSGANDKLKWCLRVNPKGLDEESKDYLSLYLLLVSCPKSEVRAKFKFSILNAKGEETKAMESQRAYRFVQGKDWGFKKFIRRDFLLDEANGLLPDDKLTLFCEVSVVQDSVNISGQNTMNMVKVPECRLADELGGLWENSRFTDCCLCVAGQEFQAHKAILAARSPVFSAMFEHEMEESKKNRVEINDVEPEVFKEMMCFIYTGKAPNLDKMADDLLAAADKYALERLKVMCEDALCSNLSVENAAEILILADLHSADQLKTQAVDFINYHASDVLETSGWKSMVVSHPHLVAEAYRSLASAQCPFLGPPRKRLKQS	binds
